Assay results from doi:10.1101/720938 (bioRxiv, 2019).

B1: PilA5 (TT_C1836), pilin of Thermus thermophilus HB27 (subunit of the narrow type IV pilus) (natural protein, T. thermophilus HB27, UniProt Q72GL2 6-116, looked up)
chain: FTLIELAIVIVIIGILVAIAVPRFVDLTDQANQANVDATAAAVRSAYAIATVQAKGIPTCDQVFANPEGGSTSGSTWTSSDNSTTVSCNASADTFTISRGGKTRTLNLTVN
modifications: extra density at Ser73, suggested to be O-linked glycosylation; disulphide bond Cys60-Cys88
B2: PilA4, major pilin of Thermus thermophilus HB27 (subunit of the wide type IV pilus) (natural protein, T. thermophilus HB27, UniProt Q72JC0 7-131, looked up)
chain: FTLIELLIVIAIIAILAAVLIPNLLAARKRANDTVVTAYLNDAVKFQEMYQIDNNSYTSNQAALISLGLKSTPANVTFSIVSASANSYCMIAGHSGGTVWFAATPDKGVYKTNTAVTSSQPESCP
modifications: extra densities at Ser59, Ser66 and Ser71, suggested to be O-linked glycosylation; disulphide bond Cys89-Cys124

Molecular target: the molecule itself
Assay: cryo-EM structure

Row | Protein | binding result
1 | B1 | binds
2 | B2 | binds
